Assay results: the supplement of paper PMC7125110
± gives the standard error. For part of these data: Variants at the floor of the assay were thinned out.

B1: glmS ribozyme (parent)
chain: AUAAAAGCGCCAGAACUACAGAAAUGUAGUUGACGAGGAGGAGGUUUAUCGAAUUUUCGGCGGAUGCCUCCAAA

Columns and labels:
Conditions in all cases: with glucosamine-6-phosphate
glucosamine-6-phosphate [1] = variants of: B1; test: kcat; higher = faster cleavage; RNA array
How it was run: (§1)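 Using a hybridised Cy3 probe at 37 °C, barcoded ribozyme variants transcribed in situ by E. coli RNA polymerase on sequenced MiSeq chips were monitored across tiles imaged over ~14 h. The flow contained glucosamine-6-phosphate from 40 μM to 10 mM in HEPES/KCl/Mg(OAc)2 buffer. Signals were normalised to baseline and to non-cleaving reference variants before per-tile medians were fit to one- or two-exponential decays to yield kobs. Weighted Michaelis–Menten fits across concentrations gave kcat and KM.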

glucosamine-6-phosphate [2] = variants of: B1; test: KM; higher = weaker cofactor use; RNA array
How it was run: as §1

glucosamine-6-phosphate [3] = variants of: B1; test: self-cleavage kobs at 40 uM GlcN6P; higher = faster cleavage; RNA array
How it was run: as §1

glucosamine-6-phosphate [4] = variants of: B1; test: self-cleavage kobs at 160 uM GlcN6P; higher = faster cleavage; RNA array
How it was run: as §1

glucosamine-6-phosphate [5] = variants of: B1; test: self-cleavage kobs at 640 uM GlcN6P; higher = faster cleavage; RNA array
How it was run: as §1

glucosamine-6-phosphate [6] = variants of: B1; test: self-cleavage kobs at 2500 uM GlcN6P; higher = faster cleavage; RNA array
How it was run: as §1

glucosamine-6-phosphate [7] = variants of: B1; test: self-cleavage kobs at 10000 uM GlcN6P; higher = faster cleavage; RNA array
How it was run: as §1

| Variant | kcat (glucosamine-6-phosphate [1]) | KM (glucosamine-6-phosphate [2]) | self-cleavage kobs at 40 uM GlcN6P (glucosamine-6-phosphate [3]) | self-cleavage kobs at 160 uM GlcN6P (glucosamine-6-phosphate [4]) | self-cleavage kobs at 640 uM GlcN6P (glucosamine-6-phosphate [5]) | self-cleavage kobs at 2500 uM GlcN6P (glucosamine-6-phosphate [6]) | self-cleavage kobs at 10000 uM GlcN6P (glucosamine-6-phosphate [7]) |
| --- | --- | --- | --- | --- | --- | --- | --- |
| U47C G66A | 0.00207 ± 0.00059 s⁻¹ | 1050 ± 470 µM | 0.000111 ± 2.1e-05 s⁻¹ | 0.00017 ± 6.1e-05 s⁻¹ | 0.000815 ± 0.0002 s⁻¹ | 0.00159 ± 0.00037 s⁻¹ | 0.00183 ± 0.0004 s⁻¹ |
| A12C C70U C71U | 0.000174 ± 1.1e-05 s⁻¹ | 1270 ± 200 µM |  |  | 6.04e-05 ± 1.5e-05 s⁻¹ |  | 0.000154 ± 2.8e-05 s⁻¹ |
| G13U U56A C67U | 0.000254 ± 9.5e-05 s⁻¹ |  |  |  |  | 0.000115 ± 3.1e-05 s⁻¹ | 0.000167 ± 3.2e-05 s⁻¹ |
| U31C G66U | 0.000326 ± 6.8e-05 s⁻¹ | 4610 ± 1700 µM |  |  |  | 0.000124 ± 1.6e-05 s⁻¹ | 0.000214 ± 3.5e-05 s⁻¹ |
| C70G C71U | 0.000112 ± 1.4e-05 s⁻¹ | 401 ± 170 µM |  | 5.07e-05 ± 7.8e-06 s⁻¹ | 6.12e-05 ± 4.8e-06 s⁻¹ | 0.000102 ± 8.1e-06 s⁻¹ | 0.00011 ± 8.6e-06 s⁻¹ |
| A33U G66C | 1.44e-05 ± 2.1e-06 s⁻¹ | 3040 ± 1500 µM |  |  |  |  |  |
| U31G U47G A48G | 1.96e-05 ± 7.2e-06 s⁻¹ |  |  |  |  |  |  |
| A14G A48U | 0.00132 ± 0.00027 s⁻¹ | 2320 ± 780 µM | 3.34e-05 ± 1.3e-05 s⁻¹ | 6.56e-05 ± 1.5e-05 s⁻¹ | 0.000335 ± 5.6e-05 s⁻¹ | 0.000889 ± 0.00016 s⁻¹ | 0.000999 ± 0.00013 s⁻¹ |
| U55C G60U | 1.04e-05 ± 3.4e-06 s⁻¹ |  | < 1e-05 s⁻¹ | < 1e-05 s⁻¹ | < 1e-05 s⁻¹ |  | < 1e-05 s⁻¹ |
| G9U C34G C58G C68U | 4.14e-05 ± 1.9e-05 s⁻¹ |  |  | 5.81e-05 ± 2.8e-05 s⁻¹ |  |  |  |
| C11A G60A | < 1e-05 s⁻¹ |  |  |  |  |  |  |
| C16G A39G | 0.0108 ± 0.0041 s⁻¹ |  | 0.000228 ± 4.9e-05 s⁻¹ | 0.000353 ± 0.00011 s⁻¹ | 0.00194 ± 0.00038 s⁻¹ | 0.00841 ± 0.0019 s⁻¹ | 0.00779 ± 0.0013 s⁻¹ |
| U31C A52U G63U U69G | 1.91e-05 ± 1.4e-06 s⁻¹ |  |  |  |  |  |  |
| A12C U47C | 0.00284 ± 0.00039 s⁻¹ | 1840 ± 380 µM | 5.87e-05 ± 6.2e-06 s⁻¹ | 0.000185 ± 3.6e-05 s⁻¹ | 0.000953 ± 0.00013 s⁻¹ | 0.00187 ± 0.00022 s⁻¹ | 0.00226 ± 0.0002 s⁻¹ |
| G29C C71A | 0.000154 ± 3.1e-05 s⁻¹ |  |  |  | 0.000104 ± 1.9e-05 s⁻¹ | 0.000119 ± 2.7e-05 s⁻¹ | 0.000253 ± 7.8e-05 s⁻¹ |
| U30G U31A | 0.0147 ± 0.001 s⁻¹ | 914 ± 110 µM | 0.000631 ± 0.0002 s⁻¹ |  |  |  | 0.0137 ± 0.0031 s⁻¹ |
| G41U A52G | 0.000128 ± 2e-05 s⁻¹ | 1140 ± 560 µM |  |  | 3.83e-05 ± 8.7e-06 s⁻¹ | 0.000113 ± 1.3e-05 s⁻¹ | 0.000107 ± 1.1e-05 s⁻¹ |
| C16A C67A | 0.000254 ± 2.7e-05 s⁻¹ | 598 ± 150 µM |  | 6.97e-05 ± 1.3e-05 s⁻¹ | 0.000123 ± 1.2e-05 s⁻¹ | 0.00021 ± 3.3e-05 s⁻¹ | 0.000248 ± 2.9e-05 s⁻¹ |
